Measured values as given in IntAct's records for PubMed 17290217.

B1: Phosphatidylinositol 4-phosphate 5-kinase type-1 gamma (Mus musculus), O70161 (parent)
chain: MELEVPDEAESAEAGAVTAEAAWSAESGAAAGMTQKKAGLAEAPLVTGQPGPGHGKKLGHRGVDASGETTYKKTTSSTLKGAIQLGIGYTVGNLSSKPERDVLMQDFYVVESIFFPSEGSNLTPAHHFQDFRFKTYAPVAFRYFRELFGIRPDDYLYSLCNEPLIELSNPGASGSVFYVTSDDEFIIKTVMHKEAEFLQKLLPGYYMNLNQNPRTLLPKFYGLYCVQSGGKNIRVVVMNNVLPRVVKMHLKFDLKGSTYKRRASKKEKEKSLPTYKDLDFMQDMPEGLLLDSDTFGALVKTLQRDCLVLESFKIMDYSLLLGVHNIDQQERERQAEGAQSKADEKRPVAQKALYSTAMESIQGGAARGEAIETDDTMGGIPAVNGRGERLLLHIGIIDILQSYRFIKKLEHTWKALVHDGDTVSVHRPSFYAERFFKFMSSTVFRKSSSLKSSPSKKGRGALLAVKPLGPTAAFSASQIPSEREDVQYDLRGARSYPTLEDEGRPDLLPCTPPSFEEATTASIATTLSSTSLSIPERSPSDTSEQPRYRRRTQSSGQDGRPQEEPHAEDLQKITVQVEPVCGVGVVPKEEGAGVEVPPCGASAAASVEIDAASQASEPASQASDEEDAPSTDIYFPTDERSWVYSPLHYSARPASDGESDT

Variants of: B1
Conditions: with Ap2b1, Q9DBG3-2
Ap2b1, Q9DBG3-2, sequence (Q9DBG3 other isoform, or with tags, fused parts or gaps): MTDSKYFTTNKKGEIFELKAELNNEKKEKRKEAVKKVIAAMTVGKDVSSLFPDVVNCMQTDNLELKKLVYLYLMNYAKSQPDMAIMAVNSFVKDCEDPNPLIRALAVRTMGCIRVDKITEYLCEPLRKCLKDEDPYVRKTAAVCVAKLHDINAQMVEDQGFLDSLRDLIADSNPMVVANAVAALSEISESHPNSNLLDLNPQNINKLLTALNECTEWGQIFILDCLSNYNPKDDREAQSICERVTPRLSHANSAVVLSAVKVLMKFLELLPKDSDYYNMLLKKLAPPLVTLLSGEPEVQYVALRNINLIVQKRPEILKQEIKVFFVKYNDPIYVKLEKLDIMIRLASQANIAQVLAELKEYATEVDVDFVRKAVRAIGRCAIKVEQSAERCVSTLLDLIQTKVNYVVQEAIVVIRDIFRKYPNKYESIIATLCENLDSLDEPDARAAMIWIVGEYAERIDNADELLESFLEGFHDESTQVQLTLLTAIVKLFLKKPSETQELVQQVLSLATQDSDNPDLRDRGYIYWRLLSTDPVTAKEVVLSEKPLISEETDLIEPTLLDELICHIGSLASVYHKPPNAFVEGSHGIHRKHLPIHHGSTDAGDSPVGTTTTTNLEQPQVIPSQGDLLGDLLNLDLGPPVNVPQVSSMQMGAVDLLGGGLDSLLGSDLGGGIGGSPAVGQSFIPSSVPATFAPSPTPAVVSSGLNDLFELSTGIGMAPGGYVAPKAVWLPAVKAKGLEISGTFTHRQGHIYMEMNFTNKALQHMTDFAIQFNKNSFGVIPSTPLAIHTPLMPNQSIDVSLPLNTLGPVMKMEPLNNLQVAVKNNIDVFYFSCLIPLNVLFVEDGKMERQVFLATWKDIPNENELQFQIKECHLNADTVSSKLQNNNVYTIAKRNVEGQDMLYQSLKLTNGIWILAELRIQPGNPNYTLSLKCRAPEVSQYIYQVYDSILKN

Row | Variant | effect of a mutation on the interaction
1 | S645E | disrupting interaction

Variants of: B1
Conditions: with Ap2b1, Q9DBG3-1
Ap2b1, Q9DBG3-1, sequence (Q9DBG3 whole entry): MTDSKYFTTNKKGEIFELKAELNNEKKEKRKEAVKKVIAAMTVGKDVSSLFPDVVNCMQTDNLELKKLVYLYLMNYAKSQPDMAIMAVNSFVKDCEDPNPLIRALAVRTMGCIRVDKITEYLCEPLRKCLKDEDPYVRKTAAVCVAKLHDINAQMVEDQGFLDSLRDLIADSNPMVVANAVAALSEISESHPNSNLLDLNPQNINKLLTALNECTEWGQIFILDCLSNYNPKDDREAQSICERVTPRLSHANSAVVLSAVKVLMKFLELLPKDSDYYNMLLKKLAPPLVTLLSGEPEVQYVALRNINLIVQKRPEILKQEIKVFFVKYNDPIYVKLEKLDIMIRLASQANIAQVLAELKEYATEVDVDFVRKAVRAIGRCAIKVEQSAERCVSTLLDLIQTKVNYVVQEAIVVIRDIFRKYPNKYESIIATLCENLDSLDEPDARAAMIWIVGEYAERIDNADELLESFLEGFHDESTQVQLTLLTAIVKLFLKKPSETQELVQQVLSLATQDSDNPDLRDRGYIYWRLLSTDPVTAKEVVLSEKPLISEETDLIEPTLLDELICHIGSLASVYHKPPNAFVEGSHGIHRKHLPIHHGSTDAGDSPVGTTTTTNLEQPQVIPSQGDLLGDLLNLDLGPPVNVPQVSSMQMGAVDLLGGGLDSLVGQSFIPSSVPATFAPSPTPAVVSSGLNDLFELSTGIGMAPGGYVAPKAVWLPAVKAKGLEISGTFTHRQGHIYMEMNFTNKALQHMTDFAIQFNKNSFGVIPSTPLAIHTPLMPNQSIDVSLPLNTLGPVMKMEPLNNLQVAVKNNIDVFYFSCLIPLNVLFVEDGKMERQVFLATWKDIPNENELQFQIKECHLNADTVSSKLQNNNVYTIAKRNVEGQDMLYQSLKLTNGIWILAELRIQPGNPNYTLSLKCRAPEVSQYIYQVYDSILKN

Row | Variant | effect of a mutation on the interaction
2 | S645E | disrupting interaction

Variants of: B1
Conditions: with Ap2b1, Q9DBG3-1
Remark: another data set of the same source

Row | Variant | effect of a mutation on the interaction
3 | D277A | disrupting interaction
